The values that follow come from publication PMC11742319, “Phosphorylation regulates the chromatin remodeler SMARCAD1 in nucleosome binding, ATP hydrolysis, and histone exchange”.

Data set [1] deals with T1, 23A SMARCAD1, dephosphorylated (human) (UniProt Q9H4L7).
T1 sequence: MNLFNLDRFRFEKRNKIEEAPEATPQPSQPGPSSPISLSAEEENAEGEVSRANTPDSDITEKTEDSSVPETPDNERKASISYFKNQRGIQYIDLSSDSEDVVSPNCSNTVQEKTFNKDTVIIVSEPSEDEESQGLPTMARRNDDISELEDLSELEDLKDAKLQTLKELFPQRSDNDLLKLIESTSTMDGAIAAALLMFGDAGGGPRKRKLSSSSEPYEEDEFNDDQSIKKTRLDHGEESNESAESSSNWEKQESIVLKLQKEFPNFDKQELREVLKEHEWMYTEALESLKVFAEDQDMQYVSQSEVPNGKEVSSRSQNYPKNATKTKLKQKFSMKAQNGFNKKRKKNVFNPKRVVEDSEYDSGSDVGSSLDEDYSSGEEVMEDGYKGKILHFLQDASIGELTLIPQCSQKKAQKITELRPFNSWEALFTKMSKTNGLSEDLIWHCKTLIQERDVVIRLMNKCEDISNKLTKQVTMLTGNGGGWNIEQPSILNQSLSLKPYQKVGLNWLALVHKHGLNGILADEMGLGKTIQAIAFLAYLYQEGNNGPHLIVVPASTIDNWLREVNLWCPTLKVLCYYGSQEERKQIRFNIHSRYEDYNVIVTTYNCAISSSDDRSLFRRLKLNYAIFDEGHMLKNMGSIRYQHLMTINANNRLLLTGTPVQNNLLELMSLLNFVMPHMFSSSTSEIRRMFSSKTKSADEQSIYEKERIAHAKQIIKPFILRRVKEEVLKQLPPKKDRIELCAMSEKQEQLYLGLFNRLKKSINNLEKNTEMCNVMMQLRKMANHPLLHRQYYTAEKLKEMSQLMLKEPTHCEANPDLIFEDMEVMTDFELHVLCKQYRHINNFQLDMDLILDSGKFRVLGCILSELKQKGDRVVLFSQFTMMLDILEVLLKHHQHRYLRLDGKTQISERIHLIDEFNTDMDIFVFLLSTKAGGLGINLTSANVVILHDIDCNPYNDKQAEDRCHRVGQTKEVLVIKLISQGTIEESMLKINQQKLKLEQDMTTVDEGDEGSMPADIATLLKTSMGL
Kind of data set: fluorescence polarization. The note with it: FP: 50 mM HEPES pH 7.5, 2 mM DTT, 10% glycerol, 0.01% CHAPS, 0.01% NP-40, no added salt stated, room temperature 30 min, 10 nM nucleosome or DNA, 0-5 uM ….

Data set [2] has as its target T2, 23A SMARCAD1, phosphorylated (human) (UniProt Q9H4L7).
T2 sequence: T1 sequence
Nature of the data set: fluorescence polarization. The note with it: FP: 50 mM HEPES pH 7.5, 2 mM DTT, 10% glycerol, 0.01% CHAPS, 0.01% NP-40, no added salt stated, room temperature 30 min, 10 nM nucleosome or DNA, 0-5 uM ….

For data set [3], the target named is nucleosome: histone octamer with Alexa Fluor 488 on histone H4 E63C assembled onto a 165 bp DNA (human) (UniProt P04908). Nature of the data set: fluorescence polarisation; 10 nM Alexa Fluor 488-labeled nucleosome (165 bp DNA), SMARCAD1 titrated 0-5 μM; 2 mM DTT, 10% glycerol, 50 mM HEPES pH 7.5, 0.01% CHAPS, 0.01% NP-40; room temperature, 30 min; hyperbolic fit.

For data set [4] the target is unchanged.
The target in data set [5] is (H3-H4)2 tetramer (fluorescently labeled with Alexa Fluor 488 on H4 at E63C) (human) (UniProt P68431). Nature of the data set: fluorescence polarisation; 5 nM Alexa Fluor 488-labeled H2A-H2B dimer or (H3-H4)2 tetramer, SMARCAD1 titrated 0-2500 nM; 2 mM DTT, 10% glycerol, 50 mM HEPES pH 7.5, 0.01% CHAPS, 0.01% NP-40, 300 mM KCl; room temperature, 30 min; hyperbolic fit.

For data set [6], the target named is T3, Δ350 SMARCAD1, dephosphorylated V974A;del1-350 (human) (UniProt Q9H4L7).
T3 sequence: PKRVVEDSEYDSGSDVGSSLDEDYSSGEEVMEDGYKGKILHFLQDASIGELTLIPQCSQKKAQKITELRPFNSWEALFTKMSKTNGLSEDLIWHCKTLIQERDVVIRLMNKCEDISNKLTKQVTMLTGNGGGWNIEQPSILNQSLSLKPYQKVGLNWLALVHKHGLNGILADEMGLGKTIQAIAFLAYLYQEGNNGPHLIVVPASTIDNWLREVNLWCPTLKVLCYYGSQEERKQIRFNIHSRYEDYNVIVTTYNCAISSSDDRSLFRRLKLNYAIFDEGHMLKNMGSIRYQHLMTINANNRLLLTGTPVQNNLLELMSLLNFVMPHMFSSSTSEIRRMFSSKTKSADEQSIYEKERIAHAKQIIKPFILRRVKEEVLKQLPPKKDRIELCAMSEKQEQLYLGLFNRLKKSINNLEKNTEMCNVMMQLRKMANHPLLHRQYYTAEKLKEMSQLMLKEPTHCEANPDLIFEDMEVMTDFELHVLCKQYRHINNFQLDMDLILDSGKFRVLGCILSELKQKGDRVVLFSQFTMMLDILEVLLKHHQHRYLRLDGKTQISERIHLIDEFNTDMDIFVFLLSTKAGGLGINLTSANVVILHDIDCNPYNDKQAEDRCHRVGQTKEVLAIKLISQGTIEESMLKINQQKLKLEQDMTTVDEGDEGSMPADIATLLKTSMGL
Nature of the data set: fluorescence polarization. The settings on record: FP: 50 mM HEPES pH 7.5, 2 mM DTT, 10% glycerol, 0.01% CHAPS, 0.01% NP-40, no added salt stated, room temperature 30 min; 10 nM nucleosome or DNA, 0-5 uM ….

Data set [7] addresses T4, Δ350 SMARCAD1, dephosphorylated (human, UniProt Q9H4L7 351-1026, V974A;del1-350).
T4 sequence: T3 sequence
Nature of the data set: fluorescence polarization; dephosphorylated (CIP); FP: 50 mM HEPES pH 7.5, 2 mM DTT, 10% glycerol, 0.01% CHAPS, 0.01% NP-40, no added salt stated, room temperature 30 min; 10 nM nucleosome or DNA, 0-5 uM SMARCAD1. The note with it: protein: recombinant; tags: 6xHis; label: Alexa Fluor 488 and Alexa Fluor 647 (labeled PCR primers); blunt.

The target in data set [8] is T5, WT SMARCAD1, dephosphorylated (human, UniProt Q9H4L7 1-1026, V974A).
T5 sequence: T1 sequence with V974A
The description is as above. The note with it: protein: recombinant; tags: 6xHis (C- or N-terminal); label: Alexa Fluor 488 and Alexa Fluor 647 (labeled PCR primers); blunt.

Residue numbers refer to the chain shown, from its start.

Consider “CGAGCCAGGCCTGAGAATCCGGTGCCGAGGCCGCTCAATTGGTCGTAGACAGCTCTAGCACCGCTTAAACGCACGTACGCGCTGTCCCCCGCGTTTTAACCGCCAAGGGGATTACTCCCTAGTCTCCAGGCACGTGTCAGATATATACATCCAGGCCTTGTGTCG (double strand) [165 bp 601 DNA]”, for which the Kd in data set [1] was determined as 0.028 µM; in data set [2], 0.049 µM.

For the molecule “dephosphorylated Δ350 SMARCAD1 (from UniProt Q9H4L7 351-1026) (domain or fragment)”, the Kd in data set [3] was 0.114 µM.

On to “phosphorylated Δ350 SMARCAD1 (from UniProt Q9H4L7 351-1026) (domain or fragment)”, for which the ATP hydrolysis rate with nucleosome as activator (1 μM SMARCAD1, 1 μM nucleosome; NADH-coupled assay) in data set [4] stood at 118 nM/s. Moreover, the Kd in data set [5] is 0.495 µM.

In the case of “CGAGCCAGGCCTGAGAATCCGGTGCCGAGGCCGCTCAATTGGTCGTAGACAGCTCTAGCACCGCTTAAACGCACGTACGCGCTGTCCCCCGCGTTTTAACCGCCAAGGGGATTACTCCCTAGTCTCCAGGCACGTGTCAGATATATACATCCAGGCCTTGTGTCG (double strand) [165 bp 601 nucleosome (7N11)]”, the Kd in data set [1] (dephosphorylated (CIP)) is 0.071 µM; in data set [2] (phosphorylated) it was 0.213 µM; in data set [6], 0.114 µM.

The molecule “phosphorylated wild type SMARCAD1 (from UniProt Q9H4L7 1-1026) (enzyme)” gave an ATP hydrolysis rate with nucleosome as activator (1 μM SMARCAD1, 1 μM nucleosome; NADH-coupled assay) in data set [4] of 30 nM/s. In data set [5], this molecule came in with an equilibrium dissociation constant (Kd) of 0.151 µM.

B1: 165 bp 601 DNA (dsDNA)
DNA 1: CGAGCCAGGCCTGAGAATCCGGTGCCGAGGCCGCTCAATTGGTCGTAGACAGCTCTAGCACCGCTTAAACGCACGTACGCGCTGTCCCCCGCGTTTTAACCGCCAAGGGGATTACTCCCTAGTCTCCAGGCACGTGTCAGATATATACATCCAGGCCTTGTGTCG
DNA 2: CGACACAAGGCCTGGATGTATATATCTGACACGTGCCTGGAGACTAGGGAGTAATCCCCTTGGCGGTTAAAACGCGGGGGACAGCGCGTACGTGCGTTTAAGCGGTGCTAGAGCTGTCTACGACCAATTGAGCGGCCTCGGCACCGGATTCTCAGGCCTGGCTCG
As for B1, the results for the Kd in data set [7] and in data set [8] were 0.06 ± 0.018 µM and 0.026 ± 0.009 µM, respectively.
